Results reported in paper PMC8385992.

Tests used:
Test in all cases: SEC
[1] = target: SARS-CoV-2 Nsp15 N278A (SARS-CoV-2)
[2] = target: SARS-CoV-2 Nsp15 S294A (SARS-CoV-2)
[3] = target: SARS-CoV-2 Nsp15 W333A (SARS-CoV-2)
[4] = target: SARS-CoV-2 Nsp15 Y343A (SARS-CoV-2)

Question: How did the stoichiometry N [1] turn out when SARS-CoV-2 Nsp15 N278A (enzyme) was run?
Answer: 6

Question: How did the stoichiometry N [2] turn out when SARS-CoV-2 Nsp15 S294A (enzyme) was run?
Answer: 6

Question: With SARS-CoV-2 Nsp15 W333A (enzyme) as the substance, how does the stoichiometry N [3] read?
Answer: 6

Question: With SARS-CoV-2 Nsp15 Y343A (enzyme) as the substance, how does the stoichiometry N [4] read?
Answer: 6
